Measurements published in patent US20190077883A1.

What was measured:
[1] = target: GST-tagged human FcRn (human; Schistosoma japonicum) (UniProt P55899); assay: ELISA pH 6.0, h9C12 variant captured on AdV5 hexon, GST-hFcRn detected with anti-GST-HRP
[2] = target: Monomeric His-tagged human FcRn (human) (UniProt P55899); assay: SPR Biacore 3000, pH 6.0, KD against IgG1 WT
[3] = target: Monomeric His-tagged human FcRn (human) (UniProt P55899); assay: SPR Biacore 3000, IgG immobilised, monomeric hFcRn injected, pH 6.0, 1:1 Langmuir
[4] = target: Monomeric His-tagged human FcRn (human) (UniProt P55899); assay: SPR Biacore 3000, IgG immobilised, monomeric hFcRn injected, pH 7.4
[5] = target: recombinant human FcRn (SPR of Example 2) (human) (UniProt P55899); assay: SPR Biacore T200, pH 6.0, KD against IgG1-WT
[6] = target: recombinant human FcRn (SPR of Example 2) (human) (UniProt P55899); assay: SPR Biacore T200, IgG immobilised, hFcRn 1000.0-15.6 nM injected, pH 6.0, 25 C, 1:1 Langmuir

Chain of recombinant human FcRn (SPR of Example 2) (human) (P55899 24-290 limits assumed, form in doubt): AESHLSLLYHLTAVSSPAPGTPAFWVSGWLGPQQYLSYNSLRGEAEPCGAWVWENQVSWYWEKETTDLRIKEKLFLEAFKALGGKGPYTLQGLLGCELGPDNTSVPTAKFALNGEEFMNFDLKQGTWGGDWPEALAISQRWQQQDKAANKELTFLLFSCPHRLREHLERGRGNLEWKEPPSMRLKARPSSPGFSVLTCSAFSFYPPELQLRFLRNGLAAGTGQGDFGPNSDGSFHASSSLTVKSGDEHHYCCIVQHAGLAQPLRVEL
Chain of Monomeric His-tagged human FcRn (human) (P55899 24-290 limits assumed, form in doubt): as above

| Fold change from WT (ELISA) pH 6.0 [1] [fold] | Fold change from WT [2] [fold] | Kd [3] [nM] | koff [3] [s⁻¹] | Substance | further results |
| --- | --- | --- | --- | --- | --- |
| 6 | – | – | – | h9C12 IgG1-L309K/Q311R/N434W/M428E (antibody) | – |
| 6 | – | – | – | h9C12 IgG1-L309R/Q311R/N434W/M428E (antibody) | – |
| 6 | – | – | – | h9C12 IgG1-L309S/Q311R/N434W/M428E (antibody) | – |
| 6 | – | – | – | h9C12 IgG1-M252S/Q311R/N434W/M428E (antibody) | – |
| – | 8.4 | 93 | 0.0078 | h9C12 IgG1-M252Y/S254T/T256E (antibody) | – |
| – | 52.9 | 14.8 | 0.0032 | h9C12 IgG1-N434W (antibody) | Kd [4]: 1980 nM |
| – | 1.1 | 687 | 0.0572 | h9C12 IgG1-Q311R (antibody) | – |
| 3 | – | – | – | h9C12 IgG1-Q311R/N434P/M428E (antibody) | Fold change from WT (KD) pH 6.0 [5]: 11.3 fold; Kd [6]: 24.2 nM; koff [6]: 0.0405 s⁻¹ |
| – | 35.1 | 22.3 | 0.0036 | h9C12 IgG1-Q311R/N434W (antibody) | – |
| 3 | – | – | – | h9C12 IgG1-Q311R/N434W/M428D (antibody) | Fold change from WT (KD) pH 6.0 [5]: 9.28 fold; Kd [6]: 29.4 nM; koff [6]: 0.0312 s⁻¹ |
| 6 | 20.3 | 38.5 | 0.005 | h9C12 IgG1-Q311R/N434W/M428E (antibody) | Fold change from WT (KD) pH 6.0 [5]: 29.3 fold; Kd [6]: 9.3 nM; koff [6]: 0.0111 s⁻¹ |
| 9 | – | – | – | h9C12 IgG1-Q311R/N434W/M428E/H433K (antibody) | – |
